# Data as given in the supplement of paper PMC10201428.
# ± gives the standard deviation of the averaged measurements.
# Test system: VchCAST RNA-guided transposition machinery (E. coli BL21(DE3) host, lacZ target)
# Assay: relative integration efficiency (T-LR orientation) vs wild-type transposon end (log2 (normalized fold change)); transposon end mutated: right end (5 bp flank + 75 bp right end); higher = more efficient transposition
# Method in brief: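 Relative integration efficiency is a fold change of output over input barcode abundance, normalised to reference barcodes and log-transformed. Input plasmids and genomic integration junctions were PCR-amplified and Illumina-sequenced from E. coli BL21(DE3) co-transformed with a T7-driven effector plasmid and pUC57 donor pools of 1549 left-end or 1849 right-end transposon variants. Plating was done with 0.1 mM IPTG at 37°C for 18 h, with two biological output replicates and four reference barcodes.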
row,Sequence,relative integration efficiency (log2)
1,ACATTTCTTCATACAACCATAAAATGATAATTACACCCATAAATGGATCATTATCACACCCAATTTAACTATAACGCTCTGATCATAGTCAGACCAACATTGCTACGACCCGTATTCGCACCGACAC,-3.69 ± 0.99
2,ACATTTGTTGATACAACCATATATTGATATCTCCAACCATAAGTTGATATTTTTCACACCCATAAATTGATATTGCCTCTGATCATAGTCAGACCAACATTGCTACGACCCGTATTCGCACCGACAC,-0.216 ± 0.018
3,ACATTTGTTGATACAACCATAAAATGGTAATTCCACCCATAAATTGATAATTATCACACCCAATTTAACTATAACGCTCTGATCATAGTCAGACCAACATTGCTACGACCCGTATTCGCACCGACAC,2.06 ± 0.044
4,ACATTTGTTGATACAACCATATATTGATATCTCCACCCATAAATTGATAATTATCACACCCATAAATTGATATTGCCTCTGATCATAGTCAGACCAACATTGCTACGACCCGTATTCGCACCGACAC,-0.187 ± 0.16
5,ACATTTGTTGATACAACCATAAAATGATAATTACACCCATAAATTGATAATTATCACACCACGCAATTGATATTGCCTCTGATCATAGTCAGACCAACATTGCTACGACCCGTATTCGCACCGACAC,2.1 ± 0.088
6,ACATTTGTTGATACAACCATAAAATGATAATTACTCTGCACCCATAAATTGATAATTATCAGTGGGTATTTAACTATAACGATCATAGTCAGACCAACATTGCTACGACCCGTATTCGCACCGACAC,0.872 ± 0.43
7,ACATTTGTTGATACAACCATAAAATGATAACACCCATAAATTGATAATTATCACACCCATAAATTGATATTGCCTCTGATCATAGTCAGACCAACATTGCTACGACCCGTATTCGCACCGACACTGA,-1.25 ± 0.2
8,ACATTTGTTGATACAACCATAAAATGAGCCGGCACAAACGCCCGGTCGCCGGCGACACAAACGCCCGGTCGCGGTAAGAGGATCATAGTCAGACCAACATTGCTACGACCCGTATTCGCACCGACAC,-0.24 ± 0.25
9,ACATTTGTCGATACAACCATAAAATGATAATTACACCCATAAATGGATAATTATCACACCCAATTTAACTATAACGCTCTGATCATAGTCAGACCAACATTGCTACGACCCGTATTCGCACCGACAC,1.69 ± 0.097
10,ACATTGGTTCATACAACCATAAAATGATAATTACACCCATAAATGGATAATTATCACACCCAATTTAACTATAACGCTCTGATCATAGTCAGACCAACATTGCTACGACCCGTATTCGCACCGACAC,-5.92 ± 3.5
11,ACATTTGTTGATAAAACCATAAAATGATTTTAAGAAACCATAATCTGAAATAATCACACCCATAAATTGATATTGCCTCTGATCATAGTCAGACCAACATTGCTACGACCCGTATTCGCACCGACAC,-1.78 ± 0.24
12,ACATTTGTTGATACAACCATAAAATGATAATTACACCCATAAATTGATATTGCTCACAACCATAAAATGATAATTACTCTGATCATAGTCAGACCAACATTGCTACGACCCGTATTCGCACCGACAC,0.106 ± 0.059
13,ACATTTGTTGATACAACCATAAAAGGATAATTACCCCCATAAATTGATAATTATCACACCCCATTTAACTATAACGCTCTGATCATAGTCAGACCAACATTGCTACGACCCGTATTCGCACCGACAC,1.61 ± 0.2
14,ACATTTGTTGATACCACCATAAAATGGTAATTACACCCCTAAATTGATAATTATCACACCCAATTTAACTATAACGCTCTGATCATAGTCAGACCAACATTGCTACGACCCGTATTCGCACCGACAC,-0.273 ± 0.24
15,ACATTTGTTGATACAACCATAAAATGATTATTACACCCATAAATTGATAATTGTGACACCGAATTTAACTATAACGCTCTGATCATAGTCAGACCAACATTGCTACGACCCGTATTCGCACCGACAC,2.3 ± 0.095
16,ACATTTGTTGATACAACCATAAAATGATAATTACACCCATAAATTGATAATTATCACACCCATAAATTGATATTGCCTCTGATCATCAACCATAAAATGATAATTAAGTCAGACCAAGCACCGACAC,0.201 ± 0.068
17,ACATTTGTTGATACACCCATAAATTGATAATTACACCCATAAATTGATAATTATCACAACCATATATTGATATCTCCTCTGATCATAGTCAGACCAACATTGCTACGACCCGTATTCGCACCGACAC,-0.271 ± 0.04
18,ACATTTGTTGATACAACCATAAAATGATAATTACACCCATAAATTGATAATTATCACACCCATAAATTGATATTGCCTCTGATCATAGTCAGACCAACAACCATAAAATGATAATTAGCACCGACAC,-0.0679 ± 0.32
19,ACATTTGTTGATACAACCATATATTGATATCTCCAACCATAAAATGATAATTATCACAACCATAAGTTGATATTTTCTCTGATCATAGTCAGACCAACATTGCTACGACCCGTATTCGCACCGACAC,-0.357 ± 0.16
20,ACATTAGTTGATACAACCATAAAATGATAATTACACCCATAAATTCATCATTATCACACCCAATTTAACTATAACGCTCTGATCATAGTCAGACCAACATTGCTACGACCCGTATTCGCACCGACAC,-4.99 ± 0.51
21,ACATTTGTTGATACAACCATAAAATGATAATGCACAAACGCCCGGTCGCCGGCGACACAAACGCCCGGTCGCGGTAAGAGGATCATAGTCAGACCAACATTGCTACGACCCGTATTCGCACCGACAC,1.04 ± 0.18
22,ACATTTGTTGATACAACCATAAAATGATAATTACACCCATAAATTGATAATTATGTCACCCATAAATTGATATTGCCTCTGATCATAGTCAGACCAACATTGCTACGACCCGTATTCGCACCGACAC,0.557 ± 0.054
23,ACATTTGTTGATACAACCATAAAATGATAATTACACCCATAAATTGATTTAAATCACACCCATAAATTGATATTGCCTCTGATCATAGTCAGACCAACATTGCTACGACCCGTATTCGCACCGACAC,-0.261 ± 0.15
24,ACATTTGTTGATACAACCATAAGTTGATATTTTCAACCATAAAATGATAATTATCAGTGGGTATTTAACTATAACGCTCTGATCATAGTCAGACCAACATTGCTACGACCCGTATTCGCACCGACAC,2.48 ± 0.2
25,ACATTTGTTGATACAACCATTAAATGATAATTACACCCATAAATTGATAATAATGACACCGAATTTAACTATAACGCTCTGATCATAGTCAGACCAACATTGCTACGACCCGTATTCGCACCGACAC,1.98 ± 0.0099
